Laboratory results taken from patent US20240050559A1 (ICOSAVAX, published 2024).

Molecular target: T1, compA-01
T1 chain: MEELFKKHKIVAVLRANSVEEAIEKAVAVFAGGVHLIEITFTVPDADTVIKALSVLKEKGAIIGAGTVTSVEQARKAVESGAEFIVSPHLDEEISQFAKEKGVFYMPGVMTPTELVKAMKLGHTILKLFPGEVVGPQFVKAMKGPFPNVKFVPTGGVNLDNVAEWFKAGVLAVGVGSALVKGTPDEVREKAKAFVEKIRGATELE
Assay: particle assembly of purified compB-01 with compA-01

B1: compB-01 (I53-50B sequence) (designed binder)
chain: MNQHSHKDHETVRIAVVRARWHAEIVDACVSAFEAAMRDIGGDRFAVDVFDVPGAYEIPLHARTLAETGRYGAVLGTAFVVNGGIYRHEFVASAVINGMMNVQLNTGVPVLSAVLTPHNYDKSKAHTLLFLALFAVKGMEAARACVEILAAREKIAA
notes: Designed pentameric component B of the two-component I53-50 icosahedral particle; also called I53-50B compB-01; bompB-01
- binding result: binds
